± gives the uncertainty stated by the source.
B1: Protein piccolo, residues 1058 to 1114; numbered along this chain, Q9Y6V0 (parent)
chain: TCPLCKTELNIGSKDPPNFNTCTECKNQVCNLCGFNPTPHLTEIQEWLCLNCQTQRA

Variants of: B1
Test: abundance fitness (aPCA) (normalised: wild type 0, dead -1); higher = more abundant; growth selection in yeast, the domain comes from the species named
Conditions: Homo sapiens

Abundance fitness of substitutions, site by site:
C25: P -0.577 ± 0.1; Q -0.644 ± 0.15; R -0.79 ± 0.079; S -0.671 ± 0.078; T -0.606 ± 0.13; V -0.636 ± 0.084; W -0.879 ± 0.11; Y -0.651 ± 0.12
K26: C -0.026 ± 0.16; D 0.071 ± 0.13; E 0.045 ± 0.31; F -0.025 ± 0.12; G 0.139 ± 0.11; H -0.253 ± 0.29; I 0.006 ± 0.18; L 0.103 ± 0.095; M 0.335 ± 0.17; N 0.09 ± 0.19; P -0.148 ± 0.14; Q 0.04 ± 0.14; R 0.072 ± 0.11; S 0.119 ± 0.1; T 0.195 ± 0.14; V 0.065 ± 0.097; W -0.022 ± 0.11; Y 0.148 ± 0.16
N27: A 0.151 ± 0.11; C 0.169 ± 0.18; D -0.094 ± 0.12; F -0.424 ± 0.19; G 0.138 ± 0.096; H -0.024 ± 0.19; I 0.004 ± 0.2; K -0.03 ± 0.15; L 0.157 ± 0.088; M -0.088 ± 0.16; P -0.317 ± 0.14; Q 0.112 ± 0.15; R 0.106 ± 0.096; S 0.12 ± 0.12; T -0.082 ± 0.18; V 0.163 ± 0.09; W 0.174 ± 0.11; Y -0.452 ± 0.18
Q28: A 0.09 ± 0.13; C 0.018 ± 0.11; D -0.398 ± 0.26; E -0.164 ± 0.13; F -0.185 ± 0.12; G 0.038 ± 0.1; H -0.206 ± 0.16; I -0.579 ± 0.21; K -0.265 ± 0.2; L -0.078 ± 0.091; M 0.186 ± 0.14; N -0.125 ± 0.18; P -0.099 ± 0.14; R 0.004 ± 0.086; S 0.007 ± 0.095; T -0.015 ± 0.13; V -0.033 ± 0.1; W -0.115 ± 0.11; Y -0.179 ± 0.18
V29: A -0.064 ± 0.083; C 0.028 ± 0.084; D -0.32 ± 0.092; E -0.178 ± 0.12; F -0.217 ± 0.075; G -0.198 ± 0.078; H -0.1 ± 0.076; I -0.241 ± 0.078; K -0.326 ± 0.11; L -0.284 ± 0.072; M -0.039 ± 0.1; N -0.199 ± 0.077; P -0.545 ± 0.085; Q -0.212 ± 0.099; R -0.148 ± 0.076; S -0.265 ± 0.068; T -0.118 ± 0.073; W -0.131 ± 0.097; Y -0.082 ± 0.077
C30: A -0.562 ± 0.11; D -0.499 ± 0.18; E -0.532 ± 0.16; F -0.991 ± 0.14; G -0.584 ± 0.1; H -0.17 ± 0.24; I -0.887 ± 0.2; L -0.971 ± 0.11; M -0.734 ± 0.14; N -0.612 ± 0.18; P -0.807 ± 0.14; Q -0.619 ± 0.15; R -0.541 ± 0.099; S -0.429 ± 0.095; T -0.597 ± 0.13; V -0.594 ± 0.099; W -1 ± 0.14; Y -1.03 ± 0.14
N31: C 0.093 ± 0.11; D 0.003 ± 0.26; E 0.148 ± 0.15; F 0.117 ± 0.13; G 0.028 ± 0.096; H 0.118 ± 0.18; I -0.121 ± 0.16; K 0.12 ± 0.16; L 0.072 ± 0.083; M -0.147 ± 0.15; Q 0.014 ± 0.12; R 0.012 ± 0.088; S 0.056 ± 0.098; T -0.173 ± 0.14; V 0.045 ± 0.1; W -0.19 ± 0.097; Y 0.011 ± 0.16
L32: A 0.124 ± 0.1; C -0.017 ± 0.13; D -0.032 ± 0.2; G 0.279 ± 0.088; H 0.073 ± 0.14; I -0.097 ± 0.2; K 0.172 ± 0.16; M -0.131 ± 0.13; N -0.176 ± 0.24; P -0.134 ± 0.14; R 0.175 ± 0.087; S 0.128 ± 0.093; T -0.017 ± 0.15; V 0.104 ± 0.092; W 0.015 ± 0.094; Y -0.218 ± 0.17
C33: A -0.588 ± 0.12; D -0.336 ± 0.2; E -0.349 ± 0.13; F -0.92 ± 0.16; H 0.076 ± 0.13; I -0.933 ± 0.15; K -0.822 ± 0.18; L -0.819 ± 0.089; M -0.812 ± 0.14; N -0.641 ± 0.15; P -0.795 ± 0.14; Q -0.623 ± 0.17; R -0.729 ± 0.1; S -0.646 ± 0.097; T -0.952 ± 0.14; V -0.743 ± 0.12; W -1.01 ± 0.12; Y -1.26 ± 0.17
G34: A -0.083 ± 0.15; D -0.075 ± 0.19; E -0.292 ± 0.17; F -0.035 ± 0.12; H -0.37 ± 0.24; I -0.885 ± 0.28; K -0.794 ± 0.19; L 0.043 ± 0.087; M -0.643 ± 0.12; N -0.925 ± 0.35; P -0.63 ± 0.17; Q -0.072 ± 0.15; R -0.102 ± 0.099; S -0.106 ± 0.088; T -1.02 ± 0.15; V -0.037 ± 0.094
